# Test: Dissolution of GLP-1 in lipid formulation containing P80 and MeSulf (visual: homogenous, transparent)
# Assay type: physicochemical
# Conditions: SPC/GDO/P80/EtOH/PG/MeSulf=41.0/41.0/5.0/3.0/10.0/0.5 wt %; nominal loads 3, 4, 5 and 6 wt % GLP-1(0); room temperature, 1-3 days
# Description: The lipid composition was the following: SPC/GDO/P80/EtOH/PG/MeSulf=41.0/41.0/5.0/3.0/10.0/0.5 wt %.
substance,measurement,value
"GLP-1(7-36)amide, acetate salt [GLP-1(Ac)]",Dissolution of GLP-1 in the lipid formulation,complete dissolution

# Reference: US9820934B2, “Acid containing lipid formulations” (CAMURUS AB, priority 2007, dated 2017)
